{"source": "the DeepSol protein solubility set", "data": [{"test": "soluble on expression in E. coli; label from the status in PepcDB or PDB records", "values": [{"sequence": "MGSDKIHHHHHHMAFDEMINADSSPRQPYSTYHQWYASQDRNRLIAKSKEAEKIFRKTGITFAVYGHADSSEKLIPFDLIPRIISGREWRRLAQGIEQRVIALNAFLDDIYHKQEIIRAGRIPRELVEKNDTFLPQMIGFRPPGGVYTHIVGTDIVRTGEDQYYVLEDNARTPSGVSYMLENRETMMQMFPELFHQNRVRPVENYPNLLRQSLSSLAPAGCEGKPRVAVLTPGIYNSAFYEHAFLADMMGVELVEGSDLRVIDGRVKMRTTRGYEAIDVLYRRVDDDFLDPLTFRPDSALGIPGIMDVYRAGNITIANAPGTGISDDKAIYSYMPEIVEFYTGRKPLLENVPTWRCSEPESLKYVLEHLAELVVKEVHGSGGYGMLVGPTATKKECAAFAEKLKSRPGNYIAQPTLSLSTVPIMVNKGIAPRHVDLRPYVLVSDKVQIIPGGLTRVALKEGSLVVNSSQGGGTKDTWVLED", "soluble on expression in E. coli": "not soluble"}, {"sequence": "MGSDKIHHHHHHMSFPTIPDITPTISINRSDVINLLLASIAFEELGLAHIINAEAEKIQYILGTLSEQVPTEPPTQDDLIEINKSVNQTLRTVIKNQMLLQFKLEDLIVENPLPSITIKKYVSGDGGVTWYDADSPPGPTIDPEQVPMFRFVITNTGNVILTGVTVTDSVLGLISTGGILPPGAFFEEYRSGEYLGGDQSNTATVIGYYLDQQVEDSDVAYYTEPT", "soluble on expression in E. coli": "not soluble"}, {"sequence": "MNLTVSHLDKLRLPLLHKIYKENYPSGKPKGKEEIIVIEGDKKILGAMRIKTYEECHFLTGMMIIKERRGESLGSQLLFKLNEFLSLEHCYCFCEPQLSEFYLKNDFIHIDKKNIPHVLKSKHDRYTNTGKELDILLYKKTNN", "soluble on expression in E. coli": "not soluble"}, {"sequence": "MAFEFKLPDIGEGIHEGEIVKWFIKPGDEVNEDDVLLEVQNDKAVVEIPSPVKGKVLEVLVEEGTVAVVGDTLIKFDAPGYENLKFKGDDHDEAPKAEATPAATAEVVNERVIAMPSVRKYARENGVDIHKVAGSGKNGRIVKADIDAFANGGQAVAATEAPAAVEATPAAAKEEAPKAQPIPAGEYPETREKMSGIRKAIAKAMVNSKHTAPHVTLMDEVDVTELVAHRKKFKAVAADKGIKLTYLPYVVKALTSALREYPMLNTSLDDASQEVVHKHYFNIGIAADTDKGLLVPVVKDTDRKSIFTISNEINDLAGKAREGRLAPAEMKGASCTITNIGSAGGQWFTPVINHPEVAILGIGRIAEKPVVKNGEIVAAPVLALSLSFDHRLIDGATAQKALNQIKRLLNDPQLLVMEA", "soluble on expression in E. coli": "not soluble"}, {"sequence": "MIKRPIHLSHDFLAEVIDKEAITLDATMGNGNDTVFLAKSSKKVYAFDIQEEAIAKTKAKLTEQGISNAELILDGHENLEQYVHTPLRAAIFNLGYLPSADKTVITKPHTTIKAIKNVLDILEVGGRLSLMVYYGHDGGKSEKDAVIAFVEQLPQNNFATMLYQPLNQVNTPPFLIMVEKLQSYENEV", "soluble on expression in E. coli": "not soluble"}, {"sequence": "MTPPVSAFKKTPKKEEHPLVAIVILDAFDQRFAPTHESYPCFGTIPICNVPAINFALSWLMRTEVKNVMLVVSGLNADHATSVQREWRLAFDEFTVVVCDGASSVGDCMREIHNRELITGDFMLISNPTAVVSSTLSAQISEFRKRRRENPDNVMTLLYSNRENPEHLVLGINSETSKLMLFPAANSLNQLKASKKDFYDEVDIRRDLTPTGIAFCSRLIATQFSDNFDFVGIDDVVREILSKDDILGMSVHVEVLSPKERAFCAYDYESLILLNILMLERWFYPLVPENSDPSRYFSANPRNLYLEENGDEISIKANTWILNNNCSTVCLGVKTDIAYDAFIRNSCIGAHTEISSKTRITSSMIGKNCKIGENCVIEYAFIGDDVVIPNGAHIPKESIIGNGVMYPKELPNIQNTAIFKNAINEETFEKLSSQPIGNVHVSKFRNGGPFWRRSVNGKTNFALEEDDSESEYSESEEEDDGVGNSTKMFHDEVLESMQKILESENSLMRNLILEINSSKLACNVTMDEVARNVFAAFMKLKHNQDFNKMKELIVKWQPLFLNYYKTSAESLKVKSADQKRFELDLKRRCQIQLLLAIEDKFDRDESFGVKAQALVHYLYQEADILDEDSIIEWAGSIAEESKLKGLMKKIVDWLQEDDDEEESEDE", "soluble on expression in E. coli": "not soluble"}, {"sequence": "MGAMESLRWMEARLPEILKDLEAFVRRESPSGDLEGLEAAARFLEEAFGPLEGRLSRKDTPAGPVLLLKREGEGAPVLLLCHYDTVHPKGSFPEPFRLEREKAIGPGVYDMKGGIIALLYALRYAEATGRRLPALEVLFTPDEEVGSPESRPLIEAAAKKARAVLVLEPPTAEGHLKVARKGVGLYRLRAIGKAAHQGVEPEKGVNAILELAHQVLKVAALEDREKGTTLGPNRIRGGTATNVVAEEAEVEIDLRAWTLEEVQRVEEGLKALKPVLPGARLVLSGGLNRPPMEPTEASLALFAKARAIGEALGLRLEPGRVGGGSDGNFTAALGVPTLDGLGLFGGNAHQKTEYVVVPEIPRRTALLAELLAAL", "soluble on expression in E. coli": "soluble"}, {"sequence": "MVSFKRYELPPLPYNYNALEPYIIEEIMKLHHQKHHNTYVKGANAALEKIEKHLKGEIQIDVRAVMRDFSFNYAGHIMHTIFWPNMAPPGKGGGTPGGRVADLIEKQFGGFEKFKALFSAAAKTVEGVGWGVLAFDPLTEELRILQVEKHNVLMTAGLVPILVIDVWEHAYYLQYKNDRGSYVENWWNVVNWDDVEKRLEQALNNAKPLYLLPQ", "soluble on expression in E. coli": "soluble"}, {"sequence": "MLVKPPYSYIALITMAIQNAPEKKITLNGIYQFIMDRFPFYRENKQGWQNSIRHNLSLNECFVKVPRDDKKPGKGSYWTLDPDSYNMFENGSFL", "soluble on expression in E. coli": "soluble"}, {"sequence": "RRKPGKCPVTYGQCLMLNPPNFCEMDGQCKRDLKCCMGMCGKSCVSPVKA", "soluble on expression in E. coli": "soluble"}, {"sequence": "MSLEYKYDVVIVGLGPAGSSLAYLLKDTGLKVAGLDIADFNRVWGKPCGDAIGKGHFLETGLPLPKGEAMMQVVNAVDIYSPSEEVKIRLSEPEGGFMIDRNKYGLQLLEEAQKSGVDVYLKTHALSPIIENGRLVGVYAKRHGEDGDVNVKFYSKIIVDATGSGGAIKRKLPSSWPVVEPLKPTDSAVAYRKIVELDYDIEEPDVIRIYINADIAPGGYWWLFPKGRRIANIGIGVQRGRGYPHPRHLYEKYLDKRPDTGRVVRLLNEAGALLPTRRPANTIVWDNFVSIGDNAYTVNPVHGGGMGYAMTAAMYAARGIEKAFEKGDYSVETLWDINLGYMRSTGAKQAGLDILRIYLQTLTNEEVEWAMRNGLANVDNLVEASTQGEIKRLNLTLLEKAKVLARLLGRPTKLMELLTVAEYMSKVKKLYYEYPERPDGLPRWVDRVETLYREYKARLGIDWEGHHHHHH", "soluble on expression in E. coli": "soluble"}, {"sequence": "MSAKEVDFERESHLHAVMCFLTGQSGEKIVSIYPHRKPATKAPSKDPQPSSSNPGQCVKPVLTSVKDPSYGFGRVDTEFDMSLGMLAYVFKTQEIACNDGFDMKINNQRFVAYPKTWKARGESTNYQISIVFALKNGCEQHTASAYQTLSNKIAVSLVMLQNYFGFLEREDKWADNAEEPNKDHPLEEFAKTSFIVQPLAEMFEEVRNRGNIHKYLINFVELGFCDEAHALTKLNVVPKGRQEIDEIVRKMKPYHGILLLEDVWPTPDANPIVAKLLSHCSPDRSILDMSTASGIPIFEVFMIIRHLLQWTRAILIYPLCNTNIYTSATSPQPLDKMAEKFTAQFGNTIHLAAGLAHFNPPKTLDTFIRKNLPLHEQGVRAKLVVALLRHQMLMQLHQFYYILKPYSIAILPEPKEPCPAEFTKIIEESTLPNDVKGVVADICAEMLETTSYASVKRTLSLFVKVAPMMDGNHHLEEIKYKNNLDRTEIEGVFVSFKLVIATFRRPDFVAE", "soluble on expression in E. coli": "not soluble"}, {"sequence": "MTLAATLREADLFRSLPKGFVQCRACAHYCALPEGGAGKCGVRRNLGGRLYLVTYGKAAALHLDPVEKKPLYHFHPGEGILSVGTVGCNLFCAFCQNWQISQFREFRVSPEGRLDRPIGEDWPPKRLVAEAEALGVRLLAYTYNEPAVWIEYAHDTARLAKARGMKNVFVTSGFETKEAWDYIRPHLDAANVDLKGFTEKFYREVCGARLKPVLESLGHLVASGVWVEVTTLLLEGYNDSDEEVRAMARFLKGLSPDIPWHLTAAHPDYRMLDLRSTRHATLVRAHAIAKEEGLRFVYVGNVLDEERNSTYCPNCGRLLVRRRGYRVEALWEAPGVCPGCGQRIPGVWTW", "soluble on expression in E. coli": "soluble"}]}]}
